The source of these data is publication PMC2646509 (Microbiology (Reading, England), 2008).

The data set deals with the molecule itself. As to the kind of experiment: cross-linking.

Broadly, the stoichiometry N is the number of molecules, sites or subunits per partner or assembly.

B1: PrfA L140F (natural protein)
chain: MNAQAEEFKKYLETNGIKPKQFHKKELIFNQWDPQEYCIFLYDGITKLTSISENGTIMNLQYYKGAFVIMSGFIDTETSVGYYNLEVISEQATAYVIKINELKELLSKNLTHFFYVFQTLQKQVSYSLAKFNDFSINGKFGSICGQLLILTYVYGKETPDGIKITLDNLTMQELGYSSGIAHSSAVSRIISKLKQEKVIVYKNSCFYVQNLDYLKRYAPKLDEWFYLACPATWGKLN
B1: the binding result was “binds”.

B2: PrfA Y63C (natural protein)
chain: MNAQAEEFKKYLETNGIKPKQFHKKELIFNQWDPQEYCIFLYDGITKLTSISENGTIMNLQYCKGAFVIMSGFIDTETSVGYYNLEVISEQATAYVIKINELKELLSKNLTHFFYVFQTLQKQVSYSLAKFNDFSINGKLGSICGQLLILTYVYGKETPDGIKITLDNLTMQELGYSSGIAHSSAVSRIISKLKQEKVIVYKNSCFYVQNLDYLKRYAPKLDEWFYLACPATWGKLN
Consider B2, for which the binding result is given as “binds”.

B3: wild-type PrfA (positive regulatory factor A) (natural protein)
chain: MNAQAEEFKKYLETNGIKPKQFHKKELIFNQWDPQEYCIFLYDGITKLTSISENGTIMNLQYYKGAFVIMSGFIDTETSVGYYNLEVISEQATAYVIKINELKELLSKNLTHFFYVFQTLQKQVSYSLAKFNDFSINGKLGSICGQLLILTYVYGKETPDGIKITLDNLTMQELGYSSGIAHSSAVSRIISKLKQEKVIVYKNSCFYVQNLDYLKRYAPKLDEWFYLACPATWGKLN
With B3, the “stoichiometry N” value was 2.
